Measured values taken from publication doi:10.1101/358382.
Like-named read-outs stand apart in the source and are kept apart here.

Legend:
[1] = molecular target: MBP-DurN; assay: fluorescence polarisation
[2] = molecular target: DurN; assay: crystal structure
[3] = molecular target: DurN; assay: crystal structure; remark: listed apart in the source
[4] = molecular target: DurN; assay: crystal structure; remark: listed apart in the source
[5] = molecular target: fluorescently labeled duramycin; assay: fluorescence polarisation

A Ki [1] of 10.2 µM was found for 1-Hya15Ser (peptide) in this work.
A stoichiometry N [2] of 2, a stoichiometry N [3] of 2 and a stoichiometry N [4] of 2 were found for DurN (enzyme) in this work.
A Kd [5] of 0.417 µM was found for MBP-DurN (enzyme) in this work.
A Ki [5] of 7.43 µM was found for MBP-DurN K66A (enzyme) in this work.
A Ki [1] of 2.72 µM was found for duramycin (peptide) in this work.
